Data reported in patent publication US20250051465A1 (published 2025).

T1: human LEPR extracellular domain expressed with a C-terminal mouse IgG2a Fc tag (hLEPR.mFc) (human)
T1 construct: also called dimeric human LEPR
T1 chain: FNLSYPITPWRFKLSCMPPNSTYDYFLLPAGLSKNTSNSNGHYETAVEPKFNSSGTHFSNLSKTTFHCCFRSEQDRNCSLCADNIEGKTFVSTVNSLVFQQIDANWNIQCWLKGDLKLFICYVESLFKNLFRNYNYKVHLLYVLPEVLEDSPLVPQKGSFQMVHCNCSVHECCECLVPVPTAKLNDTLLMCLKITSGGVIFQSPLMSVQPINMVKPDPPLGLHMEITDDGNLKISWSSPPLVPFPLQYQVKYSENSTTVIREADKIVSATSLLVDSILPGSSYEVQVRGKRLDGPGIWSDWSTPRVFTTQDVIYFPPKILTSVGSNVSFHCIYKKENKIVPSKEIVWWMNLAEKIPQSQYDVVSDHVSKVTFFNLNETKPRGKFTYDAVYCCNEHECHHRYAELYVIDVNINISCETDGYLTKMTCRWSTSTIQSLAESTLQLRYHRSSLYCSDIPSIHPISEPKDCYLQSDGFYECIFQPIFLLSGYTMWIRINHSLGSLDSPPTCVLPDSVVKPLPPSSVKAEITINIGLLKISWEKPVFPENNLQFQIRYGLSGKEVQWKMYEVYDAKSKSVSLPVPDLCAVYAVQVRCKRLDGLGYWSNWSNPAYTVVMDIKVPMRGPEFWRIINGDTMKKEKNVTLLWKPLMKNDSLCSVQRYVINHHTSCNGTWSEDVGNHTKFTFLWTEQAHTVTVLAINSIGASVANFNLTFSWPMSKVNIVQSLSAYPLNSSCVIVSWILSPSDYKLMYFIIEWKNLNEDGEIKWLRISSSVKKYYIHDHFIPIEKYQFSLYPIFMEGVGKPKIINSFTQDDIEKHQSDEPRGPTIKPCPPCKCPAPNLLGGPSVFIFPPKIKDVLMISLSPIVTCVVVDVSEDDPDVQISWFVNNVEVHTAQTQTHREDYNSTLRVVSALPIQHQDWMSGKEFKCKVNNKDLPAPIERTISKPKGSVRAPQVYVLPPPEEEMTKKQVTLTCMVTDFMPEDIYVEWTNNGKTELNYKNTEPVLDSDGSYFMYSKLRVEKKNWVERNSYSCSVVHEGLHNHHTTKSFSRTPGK


What was measured:
human LEPR CRH2-MMH = molecular target: T2, human LEPR CRH2-MMH (human, UniProt P48357 428-634, limits assumed); test: Luminex, myc-captured LEPR domain
T2 construct: domain: CRH2; Transiently expressed, captured from supernatant on anti-myc beads
Procedure: (§1) Aliquots of microspheres with immobilized anti-myc monoclonal antibodies, prepared as described above, were added individually to 1 mL of the each of these protein supernatants. The microspheres were gently mixed, incubated for two hours at 25° C., washed twice with 1 mL of DBPS, centrifuged to remove the supernatant and finally resuspended in 1 mL of DPBS buffer. Forty-eight μL of anti-myc IgG coupled microspheres from individual reactions with full length human LEPR and with each of the human LEPR domain proteins were withdrawn and mixed together in 3.6 mL of PBS+20 mg/mL BSA+0.05% sodium azide (blocking buffer).
(§2) From this mixed pool, 75 μL of microspheres were plated per well on a 96 well filter plate (Millipore, Cat. No: MSBVN1250) and mixed with 25 μL of individual anti-human LEPR monoclonal antibodies (0.5 or 5 µg/mL), incubated for two hours at 25° C. and then washed twice with 200 μL of DPBS with 0.05% Tween 20 (washing buffer). […] After 30 minutes, the samples were washed twice with 200 μL of washing buffer and resuspended in 150 μL of wash buffer. The Median Fluorescence intensity (MFI) of the microspheres was measured in a Luminex Analyzer.

[1] = molecular target: T3, human LEPR CRH1 (D1,D2,D3)-MMH (human, UniProt P48357 22-427, limits assumed); test: Luminex, myc-captured LEPR domain
T3 construct: domain: CRH1-Ig (D1,D2,D3); Transiently expressed, captured from supernatant on anti-myc beads; also called CRH1-Ig (D1, D2, D3)
Procedure: as §1, §2

[2] = molecular target: T1, human LEPR extracellular domain …; test: SPR, captured mAb, 25C
[3] = molecular target: T4, Macaca fascicularis LEPR extracellular domain expressed with a C-terminal myc-myc-hexahistidine tag … (Macaca fascicularis, UniProt Q9MYL0 22-837 (rhesus entry)); test: SPR, captured mAb, 37C
T4 construct: also called mfLEP.MMH
Procedure: (§3) Equilibrium dissociation constants (KD values) for LEPR binding to purified anti-LEPR monoclonal antibodies were determined using a real-time surface plasmon resonance biosensor using a Biacore 4000 instrument. All binding studies were performed in 10 mM HEPES, 150 mM NaCl, 3 mM EDTA, and 0.05% v/v Surfactant Tween-20, pH 7.4 (HBS-ET) running buffer at 25° C. and 37° C. The Biacore sensor surface was first derivatized by amine coupling with a monoclonal mouse anti-human Fc antibody (GE, #BR-1008-39) to capture anti-LEPR monoclonal antibodies. […] Kinetic association (kₐ) and dissociation (kd) rate constants were determined by fitting the real-time binding sensorgrams to a 1:1 binding model with mass transport limitation using Scrubber 2.0c curve-fitting software. Binding dissociation equilibrium constants (KD) and dissociative half-lives (t½) were calculated from the kinetic rate constants as: […]

[4] = molecular target: T1, human LEPR extracellular domain …; test: SPR, captured mAb, 37C
Procedure: as §3

[5] = molecular target: T5, human LEPR extracellular domain expressed with a C-terminal myc-myc-hexahistidine tag (hLEPR.mmh) (human, UniProt P48357 22-839); test: SPR, captured mAb, 37C
T5 construct: also called human LEPR-MMH; monomeric human LEPR
Procedure: as §3

[6] = molecular target: rat LEPR extracellular domain expressed with a C-terminal myc-myc-hexahistidine tag (rLEPR.mmh) (rat, UniProt Q62959 22-839); test: SPR, captured mAb, 25C and 37C
[7] = molecular target: mouse LEPR extracellular domain expressed with a C-terminal myc-myc-hexahistidine tag (mLEPR.mmh) (mouse, UniProt P48356 22-839); test: SPR, captured mAb, 25C and 37C
Sequence of mouse LEPR extracellular domain expressed with a C-terminal myc-myc-hexahistidine tag (mLEPR.mmh) (P48356 other isoform, or with tags, fused parts or gaps): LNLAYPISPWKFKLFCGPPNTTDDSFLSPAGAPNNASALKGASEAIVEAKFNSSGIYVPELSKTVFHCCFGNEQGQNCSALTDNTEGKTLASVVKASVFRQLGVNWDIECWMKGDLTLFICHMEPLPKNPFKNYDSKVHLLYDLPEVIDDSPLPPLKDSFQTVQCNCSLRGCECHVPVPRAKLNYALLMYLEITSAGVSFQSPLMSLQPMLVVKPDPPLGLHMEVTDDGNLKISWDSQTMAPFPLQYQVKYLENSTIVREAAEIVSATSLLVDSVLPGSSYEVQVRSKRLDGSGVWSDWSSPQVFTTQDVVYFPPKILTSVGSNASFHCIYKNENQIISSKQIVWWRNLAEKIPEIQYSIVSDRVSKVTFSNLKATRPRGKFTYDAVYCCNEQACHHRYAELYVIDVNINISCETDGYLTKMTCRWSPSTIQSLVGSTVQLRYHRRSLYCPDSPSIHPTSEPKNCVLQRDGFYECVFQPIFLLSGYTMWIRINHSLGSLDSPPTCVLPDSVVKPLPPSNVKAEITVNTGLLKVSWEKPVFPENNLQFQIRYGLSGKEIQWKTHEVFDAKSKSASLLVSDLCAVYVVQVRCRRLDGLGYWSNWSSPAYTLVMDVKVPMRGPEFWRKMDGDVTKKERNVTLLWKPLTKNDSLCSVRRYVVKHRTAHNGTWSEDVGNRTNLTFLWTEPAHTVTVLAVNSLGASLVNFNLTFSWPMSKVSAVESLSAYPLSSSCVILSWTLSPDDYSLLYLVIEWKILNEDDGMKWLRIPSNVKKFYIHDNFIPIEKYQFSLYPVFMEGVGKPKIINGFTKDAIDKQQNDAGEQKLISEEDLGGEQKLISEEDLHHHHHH

Sequence of rat LEPR extracellular domain expressed with a C-terminal myc-myc-hexahistidine tag (rLEPR.mmh) (Q62959 other isoform, or with tags, fused parts or gaps): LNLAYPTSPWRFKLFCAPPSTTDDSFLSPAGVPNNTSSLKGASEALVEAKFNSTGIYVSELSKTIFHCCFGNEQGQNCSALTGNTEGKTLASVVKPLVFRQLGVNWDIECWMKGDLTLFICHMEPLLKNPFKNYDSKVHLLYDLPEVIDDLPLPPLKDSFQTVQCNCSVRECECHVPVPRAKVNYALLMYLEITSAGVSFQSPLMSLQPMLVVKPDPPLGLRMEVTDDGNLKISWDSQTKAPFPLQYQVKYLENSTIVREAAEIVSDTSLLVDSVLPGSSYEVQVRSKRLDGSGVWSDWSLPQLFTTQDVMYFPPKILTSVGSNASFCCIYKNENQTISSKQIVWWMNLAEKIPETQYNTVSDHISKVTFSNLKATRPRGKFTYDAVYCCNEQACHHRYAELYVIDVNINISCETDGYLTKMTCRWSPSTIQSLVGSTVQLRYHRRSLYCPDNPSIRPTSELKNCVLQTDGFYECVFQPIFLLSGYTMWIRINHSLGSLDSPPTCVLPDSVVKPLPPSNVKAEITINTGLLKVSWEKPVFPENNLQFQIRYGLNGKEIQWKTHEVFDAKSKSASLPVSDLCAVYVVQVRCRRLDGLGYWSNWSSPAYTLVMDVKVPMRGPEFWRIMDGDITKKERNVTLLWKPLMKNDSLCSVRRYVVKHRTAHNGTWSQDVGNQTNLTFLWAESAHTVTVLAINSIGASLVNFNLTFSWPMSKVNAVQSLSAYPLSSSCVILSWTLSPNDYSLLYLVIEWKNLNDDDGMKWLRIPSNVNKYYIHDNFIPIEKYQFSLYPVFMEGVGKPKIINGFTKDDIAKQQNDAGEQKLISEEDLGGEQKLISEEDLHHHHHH
T2 sequence (P48357 other isoform, or with tags, fused parts or gaps limits assumed): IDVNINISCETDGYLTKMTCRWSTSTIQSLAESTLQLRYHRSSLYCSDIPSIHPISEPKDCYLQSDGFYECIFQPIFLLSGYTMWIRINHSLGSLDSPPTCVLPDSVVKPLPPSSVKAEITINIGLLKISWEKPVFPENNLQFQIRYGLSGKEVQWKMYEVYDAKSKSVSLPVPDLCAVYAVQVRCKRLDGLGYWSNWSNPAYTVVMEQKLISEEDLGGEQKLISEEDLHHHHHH

MFI (human LEPR CRH2-MMH) [MFI]	MFI [1] [MFI]	100 nM hLEPR-mFc Bound (RU) [2] [RU]	Kd [2] [nM]	koff [2] [s⁻¹]	kon [2] [M⁻¹ s⁻¹]	t½ [2] [min]	100 nM mfLEPR.MMH Bound (RU) [3] [RU]	Kd [3] [nM]	koff [3] [s⁻¹]	kon [3] [M⁻¹ s⁻¹]	t½ [3] [min]	100 nM hLEPR-mFc Bound (RU) [4] [RU]	Kd [4] [nM]	koff [4] [s⁻¹]	kon [4] [M⁻¹ s⁻¹]	t½ [4] [min]	100 nM hLEPR-MMH Bound (RU) [5] [RU]	Kd [5] [nM]	koff [5] [s⁻¹]	Binder	other results
33	2800	78	1.66	9.68e-05	58400	119	104	10.4	0.000677	64900	17	116	2.56	0.00031	121000	37	61	21.9	0.000842	H4H16679P2 (antibody, human IgG4, V domains shown, Fully human antibody with human IgG4 Fc (H4H prefix)) VH: QVQLVESGGGVVQPGRSLRLSCTASGFTFSSYAMYWVRQAPGKGLEWVSVIYYDGSYKYYADSVKGRFTISRDNSKNTLYLQMDSLRAEDTAVYYCASYNWNYWYFDFWGRGTLVTVSS VL: not shown	kon [5]: 38400 M⁻¹ s⁻¹; t½ [5]: 14 min; binding result [6]: no binding; binding result [7]: no binding
116	1750	65	2.18	8.93e-05	41000	129	143	5.18	0.000257	49700	45	110	3.15	0.000174	55300	66	61	14.8	0.000438	H4H17321P2 (antibody, human IgG4, V domains shown, Fully human antibody with human IgG4 Fc (H4H prefix)) VH: QVQLVESGGGVVQPGRSLRLSCEASGFSSSDNAMYWVRQAPGKGLEWVSVIYHDGSYKYYEDSVKGRFTIARDNSKNTLYLQMNSLRAEDTAVYYCARYNWNHWYFDVWGRGTLVTVSS VL: not shown	kon [5]: 29500 M⁻¹ s⁻¹; t½ [5]: 26 min; binding result [6]: no binding; binding result [7]: no binding
91	938	69	3.45	0.000164	47700	70	113	60.1	0.00324	53900	3.6	100	7.66	0.000652	85100	18	44	96.3	0.00341	H4H17319P2 (antibody, human IgG4, V domains shown, Fully human antibody with human IgG4 Fc (H4H prefix)) VH: QVQLVESGGSVVQPGRSLRLSCAASGFTFSTYAMYWVRQTPGKGLEWVAVLYSDGSNKYYIDSVKGRFTISRDTSTNTLYLQMSSLRADDSALYYCARLNWDYWYFDLWGRGTLVTVSS VL: not shown	kon [5]: 35400 M⁻¹ s⁻¹; t½ [5]: 3.4 min; binding result [6]: no binding; binding result [7]: no binding
